The source of these data is article PMC9035715, “Regulatory subunit NEMO promotes polyubiquitin-dependent induction of NF-κB through a targetable second interaction with upstream activator IKK2” (The Journal of Biological Chemistry, 2022).

Holding throughout (settings): both partners purified
For assay [1], the target named is T1, linear tetra-ubiquitin (Ub4), M1-linked (UniProt P0CG48 1-76; P0CG48 1-76; P0CG48 1-76; P0CG48 1-76).
T1 construct: ubiquitin, copy 1 of four moieties covalently linked N-terminal to C-terminal on one chain (M1 linked); ubiquitin, copy 2 of four; ubiquitin, copy 3 of four; ubiquitin, copy 4 of four; also called linear poly-Ub; methionine-linked Ub4 chain; source: recombinant (pET24d construct), purified; not shown: His6, N-terminal, kept
As to the kind of experiment: SEC; Superose6 Increase 10/300 GL; 25 mM Tris–HCl pH 8.0, 250 mM NaCl, 2 mM DTT, 5% glycerol; 0.2 ml/min, 22 °C; peak fractions on Coomassie-stained SDS-PAGE. For orientation: Size exclusion chromatography separates by hydrodynamic size, large species first.

In assay [2] the target is T1, linear tetra-ubiquitin (Ub4), M1-linked. As to the kind of experiment: pull-down; purified GST-NEMO fusions mixed with purified IKK proteins in the presence of Ub4, 1 h at 4 °C, then glutathione–agarose beads 2 h at 4 °C; 25 mM Tris–HCl pH 7.5, 150 mM NaCl, 1 mM EDTA, 0.5% NP-40, 0.55% Triton X-100, 5% glycerol, 1 mM DTT; four washes; Western blot.
For assay [3] the target is unchanged. As to the kind of experiment: pull-down; Ub4 recovered with GST-NEMO^241–419 from mixtures with HA-IKK2 HEK293T lysate, with or without TAT peptides (200–25 μM), 2 h at 4 °C; Western blot. In general terms: A western blot detects proteins with antibodies after separation by electrophoresis.

T1 sequence (P0CG48 1-304, one chain of several): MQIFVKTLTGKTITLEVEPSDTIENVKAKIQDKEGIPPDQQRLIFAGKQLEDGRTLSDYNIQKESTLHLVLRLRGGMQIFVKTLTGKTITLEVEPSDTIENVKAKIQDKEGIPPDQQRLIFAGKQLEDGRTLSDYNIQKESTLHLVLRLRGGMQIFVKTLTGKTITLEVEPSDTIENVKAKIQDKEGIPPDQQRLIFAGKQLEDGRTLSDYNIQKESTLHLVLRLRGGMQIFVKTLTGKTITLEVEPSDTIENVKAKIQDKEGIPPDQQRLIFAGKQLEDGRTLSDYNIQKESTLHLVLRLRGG

B1: GST-NEMO^241–383 (domain or fragment, human, UniProt Q9Y6K9 241-383, looked up)
chain: YDNHIKSSVVGSERKRGMQLEDLKQQLQQAEEALVAKQEVIDKLKEEAEQHKIVMETVPVLKAQADIYKADFQAERQAREKLAEKKELLQEQLEQLQREYSKLKASCQESARIEDMRKRHVEVSQAPLPPAPAYLSSPLALPS
notes: source: E. coli Rosetta (DE3), purified (glutathione–agarose); not shown: GST, N-terminal, kept
As to B1, in assay [1], the binding result is listed as “binds”.

B2: GST-NEMO^241–350 (domain or fragment, human, UniProt Q9Y6K9 241-350, looked up)
chain: YDNHIKSSVVGSERKRGMQLEDLKQQLQQAEEALVAKQEVIDKLKEEAEQHKIVMETVPVLKAQADIYKADFQAERQAREKLAEKKELLQEQLEQLQREYSKLKASCQES
notes: as for B1
Regarding B2, the binding result in assay [1] is on record as “binds”.

B3: GST-NEMO^241–390 (domain or fragment, human, UniProt Q9Y6K9 241-390, looked up)
chain: YDNHIKSSVVGSERKRGMQLEDLKQQLQQAEEALVAKQEVIDKLKEEAEQHKIVMETVPVLKAQADIYKADFQAERQAREKLAEKKELLQEQLEQLQREYSKLKASCQESARIEDMRKRHVEVSQAPLPPAPAYLSSPLALPSQRRSPPE
notes: as for B1
As for B3, the binding result in assay [1] was “binds”.

B4: GST-NEMO^241–375 (domain or fragment, human, UniProt Q9Y6K9 241-375, looked up)
chain: YDNHIKSSVVGSERKRGMQLEDLKQQLQQAEEALVAKQEVIDKLKEEAEQHKIVMETVPVLKAQADIYKADFQAERQAREKLAEKKELLQEQLEQLQREYSKLKASCQESARIEDMRKRHVEVSQAPLPPAPAYL
notes: as for B1
With B4, in assay [1], the binding result is recorded as “binds”.

B5: GST-NEMO^111–419 (domain or fragment, human, UniProt Q9Y6K9 111-419, looked up)
chain: KLDLKRQKEQALREVEHLKRCQQQMAEDKASVKAQVTSLLGELQESQSRLEAATKECQALEGRARAASEQARQLESEREALQQQHSVQVDQLRMQGQSVEAALRMERQAASEEKRKLAQLQVAYHQLFQEYDNHIKSSVVGSERKRGMQLEDLKQQLQQAEEALVAKQEVIDKLKEEAEQHKIVMETVPVLKAQADIYKADFQAERQAREKLAEKKELLQEQLEQLQREYSKLKASCQESARIEDMRKRHVEVSQAPLPPAPAYLSSPLALPSQRRSPPEEPPDFCCPKCQYQAPDMDTLQIHVMECIE
notes: also called truncated NEMO (lacking the KBD); source: E. coli Rosetta (DE3), purified (glutathione–agarose); not shown: GST, N-terminal, kept
For B5, in assay [2], the binding result is given as “binds”.

B6: GST-NEMO^241–419 (domain or fragment, human, UniProt Q9Y6K9 241-419, looked up)
chain: YDNHIKSSVVGSERKRGMQLEDLKQQLQQAEEALVAKQEVIDKLKEEAEQHKIVMETVPVLKAQADIYKADFQAERQAREKLAEKKELLQEQLEQLQREYSKLKASCQESARIEDMRKRHVEVSQAPLPPAPAYLSSPLALPSQRRSPPEEPPDFCCPKCQYQAPDMDTLQIHVMECIE
notes: also called CC2-ZF; source: E. coli Rosetta (DE3), purified (glutathione–agarose); not shown: GST, N-terminal, kept
As for B6, in assay [3], the binding result was “binds”.
